Measured values from the supplement of paper PMC10126150.
± gives the standard deviation of the averaged measurements.

Tested on: ATP
Assay: switch fluorescence ratio, 500 uM ATP over buffer (Cy3 cluster intensity, sum of 5 cycles each) (fold (ratio)); higher = stronger signal-on switching upon ATP binding; sequences stand for … in TCGTCGGCAGCGTCAGATGTGTATAAGAGACAGTTTTTTTTTTTTTTTTTTTTTTTTT…TC
Settings: aptamer strand: ATP DNA aptamer (quencher-CACCTGGGGGAGTATTGCGGAGGAAGG + anchor), 100 nM annealed; ATP concentration: 500 uM
Method in brief: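 The quencher-labelled ATP aptamer, at 100 nM, was annealed to Cy3-labelled switching-strand clusters on a modified Illumina MiSeq flow-cell. The clusters were imaged in selection buffer, then after 15 min with 500 uM ATP at 22 °C, and this buffer/ATP cycle ran five times with NaOH stripping and re-annealing between runs. Per-cluster fluorescence ratios, summed target-cycle over summed buffer-cycle Cy3 intensity, were averaged per switch-domain sequence. Clusters outside 100-1000 RFU were excluded.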
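Further: ATP exposure 15 min at 22 °C before imaging.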

| Sequence | switch fluorescence ratio |
| --- | --- |
| ACTAAGGGGT | 1.05 ± 0.016 |
| ACTAATGGCT | 1.01 ± 0.02 |
| ACTACAAGTT | 1 ± 0.026 |
| ACTACATATG | 1.03 ± 0.016 |
| ACTACCGGCG | 1.09 ± 0.022 |
| ACTACGTCGA | 2.01 ± 0.21 |
| ACTAGATTGA | 1.01 ± 0.028 |
| ACTAGGGCAG | 1.035 ± 0.005 |
| ACTAGGGCGT | 1 ± 0.033 |
| ACTAGGTTAT | 1.16 ± 0.15 |
| ACTAGTAACG | 0.9938 ± 0.0098 |
| ACTAGTATGC | 0.992 ± 0.017 |
| ACTAGTATTA | 1 ± 0.036 |
| ACTAGTGGGG | 0.996 ± 0.017 |
| ACTATCTATT | 0.997 ± 0.034 |
| ACTATGAGCT | 1.04 ± 0.041 |
| ACTATGTCTT | 1.005 ± 0.0049 |
| ACTATGTGTA | 0.989 ± 0.014 |
| ACTATTGGTG | 1.12 ± 0.035 |
| ACTATTTTTC | 1.016 ± 0.0035 |
| ACTCAAACCA | 1.14 ± 0.035 |
| ACTCAATTTT | 1.05 ± 0.03 |
| ACTCAGGTGT | 3.23 ± 0.13 |
| ACTCATTCTC | 1.04 ± 0.033 |
| ACTCGAGGGA | 1.01 ± 0.011 |

| Sequence | switch fluorescence ratio |
| --- | --- |
| ACTCGCCCCA | 1.46 ± 0.084 |
| ACTCGCGGGA | 0.995 ± 0.028 |
| ACTCGGAGCG | 1.01 ± 0.038 |
| ACTCGGCCGG | 1.001 ± 0.009 |
| ACTCGGGA | 1.13 ± 0.16 |
| ACTCGGGGGC | 1.09 ± 0.23 |
| ACTCGGTCTG | 1.02 ± 0.027 |
| ACTCTAGTAC | 1.31 ± 0.034 |
| ACTCTATTTG | 1.04 ± 0.025 |
| ACTCTTTGAT | 1.02 ± 0.0093 |
| ACTGAACGGT | 1.14 ± 0.055 |
| ACTGAATGCT | 0.973 ± 0.049 |
| ACTGAATTTG | 1.02 ± 0.053 |
| ACTGAGGCCT | 1.05 ± 0.045 |
| ACTGATTTGT | 0.996 ± 0.048 |
| ACTGCCGGTC | 1.04 ± 0.041 |
| ACTGCGAATT | 1.07 ± 0.023 |
| ACTGCGTAAA | 0.991 ± 0.041 |
| ACTGCTTGGT | 0.996 ± 0.017 |
| ACTGGAGGAG | 1.01 ± 0.017 |
| ACTGGAGTTT | 1.01 ± 0.023 |
| ACTGGCTGAG | 1.01 ± 0.024 |
| ACTGGGGATT | 1.04 ± 0.036 |
| ACTGGGGCGG | 1.022 ± 0.0063 |
| ACTGGGGGGA | 1.02 ± 0.04 |

| Sequence | switch fluorescence ratio |
| --- | --- |
| ACTGGGGGGG | 0.995 ± 0.03 |
| ACTGGGGTCA | 1 ± 0.03 |
| ACTGGGGTTA | 0.9786 ± 0.0021 |
| ACTGGGTAAA | 1.002 ± 0.0086 |
| ACTGGGTTGG | 0.9922 ± 0.0074 |
| ACTGGTGACT | 1.01 ± 0.037 |
| ACTGTAATGT | 1.13 ± 0.011 |
| ACTGTATATT | 1.18 ± 0.023 |
| ACTGTATGTG | 1.05 ± 0.024 |
| ACTGTGGGGG | 1.01 ± 0.022 |
| ACTGTGTTTT | 0.972 ± 0.015 |
| ACTGTTCAGC | 0.9948 ± 0.0062 |
| ACTGTTTTTT | 1.02 ± 0.018 |
| ACTTAAATTA | 1.03 ± 0.036 |
| ACTTACAGAA | 1.23 ± 0.011 |
| ACTTACGGTT | 1.32 ± 0.18 |
| ACTTAGGTAA | 1.01 ± 0.024 |
| ACTTATCTAC | 1.05 ± 0.069 |
| ACTTATGATA | 1.02 ± 0.054 |
| ACTTATGGCT | 1.05 ± 0.022 |
| ACTTCTAAAC | 1.07 ± 0.044 |
| ACTTCTAATT | 1.01 ± 0.038 |
| ACTTCTTTGT | 1.1 ± 0.11 |
| ACTTGAAGTG | 0.997 ± 0.021 |
| ACTTGACGTG | 1.01 ± 0.059 |

| Sequence | switch fluorescence ratio |
| --- | --- |
| ACTTGATCCC | 1.02 ± 0.043 |
| ACTTGCCGTA | 0.992 ± 0.071 |
| ACTTGGATGG | 0.995 ± 0.028 |
| ACTTGGCTGT | 0.99842 ± 0.00092 |
| ACTTGGGACT | 1.04 ± 0.047 |
| ACTTGGGCAT | 0.993 ± 0.028 |
| ACTTGGGGCC | 0.971 ± 0.012 |
| ACTTGGGGGA | 0.9907 ± 0.0057 |
| ACTTGGGTAG | 0.9928 ± 0.0011 |
| ACTTGGTCGT | 1.04 ± 0.012 |
| ACTTGGTCTT | 0.974 ± 0.03 |
| ACTTGTAAAC | 1.01 ± 0.025 |
| ACTTGTAGGC | 1.01 ± 0.05 |
| ACTTTAATTG | 1.002 ± 0.0014 |
| ACTTTATTAG | 1.0103 ± 0.00038 |
| ACTTTGAAGT | 0.993 ± 0.024 |
| ACTTTGAATC | 0.998 ± 0.053 |
| ACTTTGCGGT | 1.078 ± 0.0015 |
| ACTTTGCGTT | 0.992 ± 0.011 |
| ACTTTGGACA | 1.038 ± 0.0052 |
| ACTTTGGCCC | 1.005 ± 1.1e-05 |
| ACTTTGGGAT | 1.023 ± 0.0029 |
| AGAAAAACAT | 1.034 ± 0.0073 |
| AGAAAAACCG | 1.05 ± 0.052 |
| AGAAAAATGC | 1.04 ± 0.088 |

| Sequence | switch fluorescence ratio |
| --- | --- |
| AGAAAAGAGT | 1.01 ± 0.017 |
| AGAAAAGGAA | 1 ± 0.017 |
| AGAAACAGCT | 1.04 ± 0.046 |
| AGAAAGCGAC | 1.17 ± 0.093 |
| AGAAAGGAAG | 1.01 ± 0.024 |
| AGAAAGGGCG | 0.94 ± 0.037 |
| AGAAAGTTTG | 1.01 ± 0.044 |
| AGAAATACGG | 1.21 ± 0.063 |
| AGAACCTGGG | 0.981 ± 0.055 |
| AGAACGGCGG | 0.972 ± 0.085 |
| AGAACTGAGA | 0.998 ± 0.077 |
| AGAACTGGCT | 0.988 ± 0.011 |
| AGAACTTTTA | 0.998 ± 0.015 |
| AGAAGAGTAA | 1.009 ± 0.0091 |
| AGAAGATTGT | 0.989 ± 0.013 |
| AGAAGCGGTT | 1.02 ± 0.025 |
| AGAAGGGCTT | 1 ± 0.026 |
| AGAAGGGGGA | 1.01 ± 0.039 |
| AGAAGGGGGG | 0.998 ± 0.022 |
| AGAAGGGGTA | 1.01 ± 0.046 |
| AGAAGGGTTG | 1 ± 0.023 |
| AGAAGTTAGG | 0.973 ± 0.013 |
| AGAAGTTGCG | 0.986 ± 0.0083 |
| AGAAGTTGGG | 0.993 ± 0.02 |
| AGAAGTTTTC | 0.973 ± 0.038 |

| Sequence | switch fluorescence ratio |
| --- | --- |
| AGAATCGACT | 0.997 ± 0.014 |
| AGAATCGGCG | 1.03 ± 0.0081 |
| AGAATCGTTG | 1.005 ± 0.0072 |
| AGAATGGGTG | 1.05 ± 0.036 |
| AGAATGTGGG | 0.996 ± 0.034 |
| AGAATTAAG | 0.96 ± 0.017 |
| AGAATTATTG | 0.9936 ± 0.0079 |
| AGAATTTATT | 1.01 ± 0.039 |
| AGAATTTTAG | 1.01 ± 0.016 |
| AGACAGCGAG | 1.015 ± 0.0021 |
| AGACAGGGCC | 0.988 ± 0.01 |
| AGACAGGGCT | 1.02 ± 0.042 |
| AGACAGGGGA | 1.02 ± 0.04 |
| AGACCAATTC | 1.095 ± 0.0037 |
| AGACCACTTG | 1.036 ± 0.0069 |
| AGACCGAGTT | 1.08 ± 0.096 |
| AGACCGCAGT | 1.137 ± 0.0071 |
| AGACCTCATA | 1.02 ± 0.021 |
| AGACGAAAAG | 1.03 ± 0.038 |
| AGACGAAAGT | 0.998 ± 0.054 |
| AGACGGCAAA | 1.03 ± 0.044 |
| AGACGGCGGG | 0.996 ± 0.012 |
| AGACGGGATG | 0.973 ± 0.084 |
| AGACTAGTCG | 0.972 ± 0.047 |
| AGACTCTTGA | 1 ± 0.0083 |

| Sequence | switch fluorescence ratio |
| --- | --- |
| AGACTTTCTT | 1.04 ± 0.02 |
| AGAGAAAAAG | 0.957 ± 0.042 |
| AGAGAGAAAG | 0.97 ± 0.025 |
| AGAGAGATCC | 1.02 ± 0.058 |
| AGAGATGGTT | 0.979 ± 0.012 |
| AGAGATTACG | 1.02 ± 0.034 |
| AGAGATTGGG | 0.965 ± 0.017 |
| AGAGCACAGG | 1.09 ± 0.018 |
| AGAGCAGCTG | 0.998 ± 0.041 |
| AGAGCAGTGT | 1.01 ± 0.014 |
| AGAGCGGGGG | 1.02 ± 0.038 |
| AGAGGAATTC | 1 ± 0.013 |
| AGAGGAATTT | 1.01 ± 0.02 |
| AGAGGAGAAT | 0.993 ± 0.0021 |
| AGAGGAGGCA | 0.9727 ± 0.0085 |
| AGAGGATATA | 0.988 ± 0.043 |
| AGAGGCCTTG | 0.969 ± 0.013 |
| AGAGGCTTAA | 1.01 ± 0.011 |
| AGAGGGCAGG | 0.995 ± 0.018 |
| AGAGGGCCAT | 0.9972 ± 0.0021 |
| AGAGGGCGGT | 1.02 ± 0.024 |
| AGAGGGCGTC | 1.04 ± 0.046 |
| AGAGGGGAAT | 1.01 ± 0.023 |
| AGAGGGGCGG | 1 ± 0.016 |
| AGAGGGGTAC | 0.992 ± 0.047 |

| Sequence | switch fluorescence ratio |
| --- | --- |
| AGAGGGGTCA | 1.01 ± 0.02 |
| AGAGGGTAGT | 1.01 ± 0.022 |
| AGAGGGTTAT | 0.985 ± 0.038 |
| AGAGGTGGAG | 0.993 ± 0.03 |
| AGAGGTTTTG | 1.01 ± 0.042 |
| AGAGTAGTTA | 0.9737 ± 0.0036 |
| AGAGTATCTA | 0.962 ± 0.048 |
| AGAGTCGCGG | 1 ± 0.015 |
| AGAGTGACGT | 0.9848 ± 0.0018 |
| AGAGTGGAAG | 0.977 ± 0.051 |
| AGAGTGGGCC | 0.956 ± 0.07 |
| AGAGTGGTGT | 1 ± 0.024 |
| AGAGTTAAAA | 1.04 ± 0.0077 |
| AGAGTTCATA | 1.04 ± 0.027 |
| AGAGTTCTCG | 0.978 ± 0.012 |
| AGAGTTGGTC | 1 ± 0.068 |
| AGATAACAGG | 1.01 ± 0.034 |
| AGATAACTCA | 1.02 ± 0.048 |
| AGATAACTCT | 1.012 ± 0.0083 |
| AGATAGGAGT | 1.02 ± 0.019 |
| AGATAGTCTC | 0.991 ± 0.024 |
| AGATATAGGG | 0.937 ± 0.012 |
| AGATATCTA | 0.985 ± 0.023 |
| AGATATGCGT | 1.025 ± 0.0013 |
| AGATATTGGC | 1.03 ± 0.11 |
